In patent publication US9340596B2, “Fusion protein comprising tumor necrosis factor related apoptosis inducing ligand and integrin ligand and use thereof” (NANJING UNIVERSITY, priority 2007, dated 2016):

Legend:
[1] = tested on: COLO-205 colon cancer cells; experiment: Cell apoptosis, Annexin V and PI double staining, COLO-205; assay type: cell-based; details: COLO-205 cells pre-incubated with RGD-L-TRAIL (C230G), then induced with RGD-L-TRAIL
Description: After the cells treated with TRAIL and its variant were digested with trypsin, they were removed from the cultivation plate, washed twice with phosphate buffer solution, and centrifuged for 5 min at 300 g centrifugal force. The supernatants were removed, and the cells were re-suspended in 100 ul of binding buffer solution. Then, Annexin V-FITC (BD Pharmgen) was added until a final concentration of 2 μg/ml was achieved, followed by incubation at room temperature. After 10 min, 400 ul of binding buffer was added, and the cells were transferred to a flow analysis tube. 1 μg of […] (Sigma Corporation) was added to each tube. The cells were analyzed with a flow cytometer within 30 min. At least three separate tests should be carried out for each cell line.

[2] = tested on: human foreskin microvascular endothelial cells; experiment: Cell adhesion assay of human foreskin microvascular endothelial cells on protein-coated wells; assay type: cell-based; details: free protein added to plates coated with TRAIL variant protein
Description: The TRAIL and its variant protein are coated on a 96-well PVC plate overnight at 4° C. The coated 96-well plate was rinsed with 0.9% physiological saline, and then blocked for 1 h at 1640 culture medium containing 2% bovine serum albumin, and then rinsed again. After the human foreskin microvascular endothelial cells were digested, washed three times with phosphate buffer and re-suspended into the complete RPMI1640 medium, it was then added to the 96-well plate coated with TRAIL and its variant (40,000 cell per well). After the cells were incubated for 1.5 hours in an incubator containing 5% carbon dioxide, they were washed three times with physiological saline to remove the non-adherent cells. The adherent cells were fixed for 30 min with phosphate buffer solution (pH 7.3) containing 4% formalin and 2% sucrose, and then stained with 0.5% crystal violet. The fixed stained cells were rinsed several times, then dissolved with […] DMSO to test the absorbance values at 540 nm. All the tests should be carried out at least three times independently.

B1: RGD-L-TRAIL (C230G): TRAIL variant fused with αVβ3 and αVβ5 integrin ligands with a mutation at TRAIL's activity center causing loss of biological activity (protein)
chain: ACDCRGDCFCGGGGGVRERGPQRVAAHITGTRGRSNTLSSPNSKNEKALGRKINSWESSRSGHSFLSNLHLRNGELVIHEKGFYYIYSQTYFRFQEEIKENTKNDKQMVQYIYKYTSYPDPILLMKSARNSGWSKDAEYGLYSIYQGGIFELKENDRIFVSVTNEHLIDMDHEASFFGAFLVG
- effect of pre-incubation with the competitive inhibitor on RGD-L-TRAIL-induced apoptosis activity [1]: declined significantly
- reduction by free protein of endothelial cells adhered to microplates coated with RGD-L-TRAIL (competitive test) [2]: significantly reduce
